Laboratory results taken from US20250075002A1 (BEIGENE SWITZERLAND, published 2025).

Assays:
[1] = biological target: T1, human CD16A (V158) on NK92mi cells (human, UniProt P08637 17-254); assay: flow cytometry, biotinylated antibody on NK92mi/CD16A V158 cells, w/o huIgG
T1 construct: NK92mi cells co-transduced with CD16A (V158) and FcRgamma cDNAs; also called NK92mi/CD16A V158; NK92mi/CD16A

[2] = biological target: T2, human CD16A (F158) on NK92mi cells (human, UniProt P08637 17-254); assay: flow cytometry, biotinylated antibody on NK92mi/CD16A F158 cells, w/o huIgG
T2 construct: NK92mi cells co-transduced with CD16A (F158) and FcRgamma cDNAs; also called NK92mi/CD16A F158

[3] = biological target: T1, human CD16A (V158) on NK92mi cells; assay: flow cytometry, biotinylated antibody on NK92mi/CD16A V158 cells, with 10 mg/ml huIgG1 as competitor
[4] = biological target: T2, human CD16A (F158) on NK92mi cells; assay: flow cytometry, biotinylated antibody on NK92mi/CD16A F158 cells, with 10 mg/ml huIgG1 as competitor
human CD16A-His6 (V158) [5] = biological target: T3, human CD16A-His6 (V158) (human, UniProt P08637 17-208); assay: SPR; BG1222P captured by biotin anti-human Fc VHH on neutravidin; column head prints 'KD (nM)', koff/kon shows M
T3 construct: Bought (Sino Biologics) ECD fragment; also called CD16A 158V; human CD16A (V158); not shown: six-histidine tag (His6)

human CD16A-His6 (F158) [6] = biological target: T4, human CD16A-His6 (F158) (human, UniProt P08637 17-208); assay: as above
T4 construct: Bought ECD fragment; also called human CD16A (F158); not shown: six-histidine tag (His6)

human CD16A-His6 (V158) [7] = biological target: T3, human CD16A-His6 (V158); assay: SPR; BG1222P captured by biotin anti-human Fc VHH on neutravidin, analyte in solution
human CD16A-His6 (F158) [8] = biological target: T4, human CD16A-His6 (F158); assay: as above

T3 sequence (P08637 17-208 F176V): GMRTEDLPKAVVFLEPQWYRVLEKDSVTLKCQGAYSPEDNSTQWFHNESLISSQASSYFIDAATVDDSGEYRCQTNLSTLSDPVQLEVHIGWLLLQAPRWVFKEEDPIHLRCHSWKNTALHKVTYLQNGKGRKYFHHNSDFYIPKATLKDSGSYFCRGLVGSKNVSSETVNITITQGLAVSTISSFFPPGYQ
T4 sequence (P08637 17-208): as the sequence (P08637 17-208 F176V) above, with V160F counted along it
T2 sequence (P08637 17-254 limits assumed): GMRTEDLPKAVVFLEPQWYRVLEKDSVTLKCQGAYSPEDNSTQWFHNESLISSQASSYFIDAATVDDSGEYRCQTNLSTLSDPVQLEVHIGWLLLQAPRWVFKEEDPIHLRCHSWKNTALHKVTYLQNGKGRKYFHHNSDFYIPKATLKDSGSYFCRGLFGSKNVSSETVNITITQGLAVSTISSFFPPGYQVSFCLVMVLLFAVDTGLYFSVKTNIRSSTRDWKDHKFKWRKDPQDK
T1 sequence (P08637 17-254 F176V limits assumed): as the sequence (P08637 17-254 limits assumed) above, with F160V counted along it

EC50 [1]: 0.35 nM
EC50 [2]: 0.97 nM
EC50 [3]: 33.9 nM
EC50 [4]: 7.99 nM
Kd (human CD16A-His6 (V158) [5]): 0.0477 nM
Kd (human CD16A-His6 (F158) [6]): 0.147 nM
koff (human CD16A-His6 (V158) [7]): 4.22e-05 s⁻¹
kon (human CD16A-His6 (V158) [7]): 886000 M⁻¹ s⁻¹
koff (human CD16A-His6 (F158) [8]): 8.52e-05 s⁻¹
kon (human CD16A-His6 (F158) [8]): 579000 M⁻¹ s⁻¹
B1: MUC1×CD16A multi-specific antibody BG1222P (bispecific antibody, human IgG1, kappa)
chain: EVQLVESGGGLVQPGGSLRLSCAASGRTFGSYAVGWFRQAPGKGREFVAAIRRSDATTDYVDSVKGRFTISRDNAKNTVYLQMNSLKPEDTAVYYCAASDSDYEPLGDYWGQGTLVTVSSGGGGSGGGGSEVQLVESGGGLVQPGGSLRLSCAASGRTFGSYAVGWFRQAPGKGREFVAAIRRSDATTDYVDSVKGRFTISRDNAKNTVYLQMNSLKPEDTAVYYCAASDSDYEPLGDYWGQGTLVTVSSEPKSSDKTHTCPPCPAPELLGGPSVFLFPPKPKDTLYITREPEVTCVVVDVSHEDPEVKFNWYVDGVEVHNAKTKPREEQYNSTYRVVSVLTVLHQDWLNGKEYKCKVSNKALPAPIEKTISKAKGQPREPQVYTLPPSREEMTKNQVSLWCLVKGFYPSDIAVEWESNGQPENNYKTTPPVLDSDGSFFLYSKLTVDKSRWQQGNVFSCSVMHEALHNHYTQKSLSLSPGK
heavy: EVQLLESGGGLVQPGGSLRLSCAASGFTFNDYIMSWVRQAPGKGLEWVATVSSGGDNTYYPDSVKGRFTISRDNSKNTLYLQMNSLRAEDTAVYYCTRYGGLGAMDYWGQGTLVTVSSASTKGPSVFPLAPSSKSTSGGTAALGCLVKDYFPEPVTVSWNSGALTSGVHTFPAVLQSSGLYSLSSVVTVPSSSLGTQTYICNVNHKPSNTKVDKKVEPKSCDKTHTCPPCPAPELLGGPSVFLFPPKPKDTLYITREPEVTCVVVDVSHEDPEVKFNWYVDGVEVHNAKTKPREEQYNSTYRVVSVLTVLHQDWLNGKEYKCKVSNKALPAPIEKTISKAKGQPREPQVYTLPPSREEMTKNQVSLSCAVKGFYPSDIAVEWESNGQPENNYKTTPPVLDSDGSFFLVSKLTVDKSRWQQGNVFSCSVMHEALHNHYTQKSLSLSPGK
light: DIQMTQSPSSLSASVGDRVTITCRASGNIHNYLTWYQQKPGKAPKLLIYNAKTLASGVPSRFSGSGSGTDFTLTISSLQPEDFATYYCQHFWSVPYTFGQGTKLEIKRTVAAPSVFIFPPSDEQLKSGTASVVCLLNNFYPREAKVQWKVDNALQSGNSQESVTEQDSKDSTYSLSSTLTLSKADYEKHKVYACEVTHQGLSSPVTKSFNRGEC
notes: '2+1' IgG-like format: chain 1 = tandem BG526P VHHs-hinge-Fc (knob), chain 2 = huBG219P-E39 heavy chain (hole), chain 3 = huBG219P-E39 kappa light chain; YTE mutations in both Fc; also called BG11222P
